Reference: US10695406B2, “Modulation of cellular stress using a B-cell oxidative and/or endoplasmic reticulum stress inhibitor and a targeting agent” (THE UNIVERSITY OF QUEENSLAND, priority 2014, dated 2020)

Experiment: Clearance of IL-22 and IL-22 fusion proteins from serum
Type: in vivo, C57BL/6 mice
Conditions: after administration to mice
Description: Targeting to IL-22 to pancreas: Non-obese male C57BL/6 at 6-8 weeks of age. Each IL-22-GLP-1R ligand fusion protein or hIL-22 was administered i.p. at 256 ng/g of IL-22 and the molar equivalents for the individual fusion proteins (n=3 per regimen). IL-22-ScaB1 was administered at […]. Control mice received a PBS control i.p. injection only.
Serum concentrations of IL-22 and the IL-22-GLP-1R ligand fusion proteins were determined using a human IL-22 double-determinant ELISA (Biolegend; 434505) against a standard curve for the individual fusion proteins.

For “IL-22: interleukin-22; recombinant murine IL-22 (R&D SYSTEMS) in the mouse experiments”, the “time to almost complete clearance from serum” value was no more than 60 min.
